In US20220356229A1 (published 2022):

Legend:
[1] = target: T1, SARS-CoV full length Spike protein, wild type, expressed on CHO cells (SARS-CoV, UniProt P59594 14-1255); test: flow cytometry, live cell assay on transfected CHO cells
[2] = target: T1, SARS-CoV full length Spike protein, …
[3] = target: SARS-CoV-2 full length Spike protein, wild type, expressed on CHO cells (SARS-CoV-2, UniProt P0DTC2 14-1273)
[4] = target: SARS-CoV-2 full length Spike protein, wild type (SARS-CoV-2, UniProt P0DTC2 14-1208)
[5] = target: SARS-CoV-2 full length Spike protein, wild type (SARS-CoV-2, UniProt P0DTC2 14-1208); remark: listed apart in the source
SARS-CoV Spike protein = SARS-CoV Spike protein (SARS-CoV, UniProt P59594 14-1190)

Row | Binder | binding result [1] | median fluorescence intensity, fold over isotype control [2] | median fluorescence intensity, fold over isotype control [3] | median fluorescence intensity, fold over isotype control [4] | other results
1 | anti-SARS-CoV-2 antibody 1495 (antibody, V domains shown) VH: QVQLVESGGGVVQPGRSLRLSCTASGFTFSSYAMHWVRQAPGKGLEWVAVISYDGNNKYYGDSVKGRFTISRDNSKNTLYLQMNSLRAEDTAVYYCAKGADTPHYSGYHFLSVGYYFYGMDVWGQGTTVTVSS VL: DIQMTQSPSSLSASVGDRVTITCRASQSISYYLNWYQQKPGKAPQLLIYAASSLQSGVPSRFSGSRSGTDFTLTISSLQPEDFATYYCQQSYSTPFTFGPGTKVDIKR | no binding | 0.72 fold over isotype | 57.3 fold over isotype |  | 
2 | anti-SARS-CoV-2 antibody 851 (antibody, V domains shown) VH: QITLKESGPTLVKPTQTLTLTCTFSGFSLSTNGVGMGWIRQPPGKALEWLALIYWDDDQFYSPSLKSRLTITRDTSKNQVVLTMTNMDPVDTATYYCAQAFYESFGFYSWGQGTLVTVSS VL: NFMLTQPHSVSESPGKTVIISCTRSIGSIASNYVQWYQQRPGSAPTIVVFEDNERPSGVPDRFSGSIDRSSNSASLTISGLKTEDEADYYCQSYDGSSELVFGGGTKLTVLG | no binding | 0.62 fold over isotype | 60 fold over isotype |  | 
3 | antibody 564 (antibody, V domains shown) VH: QVHLVESGGGVVQPGKSLRLSCAASGFIFSSFGMHWVRQPPGKGLEWLAVVSYDGSVTKYSDSFEGRFTISRDNSKNTLYLQMDSLRPEDTAVYYCAKGQGTNLLHYWGQGILVTVSS VL: DVVLSQSPLSLPVTLGQPASISCRSSESLVYTDGDTYLHWFHQRPGQSPRRLIFKVSHRESGVPDRISGSGSGTDFTLKISRVEAEDVGVYYCMQGTHWPFTFGPGTKVDIK |  |  |  | 523 fold over isotype | 
4 | anti-SARS-CoV-2 antibody 1444 (antibody, V domains shown) VH: QVQLVQSGAEVKKPGASVKVSCKASGYTFTAYYMHWVRQAPGQGLEWMGWINPNSDDTNYAQKFQGRVTMTRDTSISTAYMELSRLRSDDTAVYYCAREEGVFTIGDRYFDLWGRGTLVSVSS VL: QTVVTQEPSFSVSPGGTVTLTCGLSSGSVSTSYYPSWYQQTPGQAPRTLIYNTNTRSSGVPDRFSGSILGNKAALTITGAQADDESDYYCVLYMGSGIWVFGGGTKLTVLG | no binding | 0.77 fold over isotype | 48.7 fold over isotype |  | 
5 | antibody 560 (antibody, V domains shown) VH: EVQLVESGGGLVQPGGSLRLSCAASGFTISSNYMSWVRQAPGKGLEWVSVIYSGGSTYYADSVKGRFTISRDNSKNTLYLQMNSLRAEDTAVYYCAREEGEWEKDYYGMDVWGQGTTVTVSS VL: not shown |  |  |  | 991 fold over isotype | 
6 | antibody 556 (antibody, V domains shown) VH: QVQLVESGGGVVQPGRSLRLSCAASGFTFSSYAMHWVRQAPGKGLEWVAVISYDGSDKYYADSVKGRVTISRDNSKNTLYLQMNSLRVEDTAVFYCAKDDCSGGVCFPDYWGQGTLVTVSS VL: QSALTQPASVSGSPGQSITISCTGTSSDVGGYNYVSWYQQHPGKAPKLMIYEVSIRPSGVSNRFSGSKSGNTASLTISGLQAEDEAAYYCSSYTSSSTLVFGGGTKLTVL |  |  |  | 625 fold over isotype | 
7 | anti-SARS-CoV-2 antibody 1075 (antibody, V domains shown) VH: QVQLVQSGAEVKKPGASVKVSCKVSGYTLIELSMHWVRQAPGKGLEWMGGFDPEDGETIYAQKFQGRVTMTEDTSTDTAYMELSSLRSEDTAVYYCATEWAYYGSGSYLGYWGQGTLVTVSS VL: EIVMTQSPATLSVSPGERATLSCRASQSVSSNLAWFQQKPGQAPRLLIYGASTRVTVIPARFSGSGSGTEFTLTISSLQSEDFAVYYCQQYNNWPRTFGQGTKVEIKR | no binding | 0.86 fold over isotype | 78.7 fold over isotype |  | 
8 | anti-SARS-CoV-2 antibody 1538 (antibody, V domains shown) VH: EVQLLESGGGLVQPGGSLRLSCAASGFTFSSYAMSWVRQAPGKGLEWVSGISDSGGSTYYADYVKGRFTISRDNSKDTLYLQMNSLRAEDTAVYYCAKDRGNEYALTHYYYYAMDVWGQGTTVTVSS VL: DIQMTQSPSSLSASVGDRVTITCRASQSISSYLNWYQQKPGKAPKLLIYAAYSLQSGVPSRFSGGGSGTDFTLTISSLQPEDFATYFCQQSYSTPITFGQGTRLEIKR | no binding | 0.75 fold over isotype | 67.5 fold over isotype |  | 
9 | antibody 421 (antibody, V domains shown) VH: QVQLVESGGGVVQPGRSLRLSCAASGFTFSTYAMHWVRQAPGKGLEWVAVISYDGSNKYYADSVKGRFTISRDNSKNTLYLQMNSLRAEDTAVYYCARGYGSGSYYPLYLYWGQGTLVTVSS VL: not shown |  |  |  |  | median fluorescence, fold over isotype [5]: 505 fold over isotype control
10 | anti-SARS-CoV-2 antibody 1015 (antibody, V domains shown) VH: EVQLVESGGGLVQPGGSLRLSCAASGFTFSSYWMHWVRQAPGKGLVWVSHINSDGSSTSYADSVKGRFTISRDNAKNTLYLQMNSLRAEDTAVYYCARGLRYFDLDVWGQGTTVTVSS VL: QSVLTQPPSVSEAPRQRVTISCSGSSSNIGNNAVNWYQQLPGKAPKLLIFYDDLLPSGVSDRFSGSKSGTSASLAISGLQSEDEADYYCAAWDDSLNGGVFGGGTKLTVLG | no binding | 0.89 fold over isotype | 30.5 fold over isotype |  | 
11 | anti-SARS-CoV-2 antibody 1404 (antibody, V domains shown) VH: QITLKESGPTLVKPTQTLTLTCTFSGFSLSISGVGVGWLRQPPGKALEWLALIYWDDDKRYSPSLKSRLTISKDTSKNQVVLKMTNIDPVDTATYYCAHHSISTIFDHWGQGTLVTVSS VL: QSALTQPASVSGSPGQSITISCTATSSDVGDYNYVSWYQQHPGKAPKLMIFEVSDRPSGISNRFSGSKSGNTASLTISGLQAEDEADYYCSSYTTSSAVFGGGTKLTVLG | no binding | 0.86 fold over isotype | 71.2 fold over isotype |  | 
12 | anti-SARS-CoV-2 antibody 896 (antibody, V domains shown) VH: EVQLVESGGGVVQPGGSLRLSCAASGFTFDDYAMHWVRQVPGKGLEWVSLISGDGGSTYYADSVKGRFTISRDNSKNSLYVQMNSLRTEDTALYYCVKDRGGSGWDLNHYYYGMDVWGQGTTVTVSS VL: DIQLTQSPSFLSASVGDRVTVTCRASQGISSYLAWYQQKPGKAPKLLIYAAYTLQSGVPSRFSGSGSETEFTLTISSLQPEDFATYYCQQVKSYPLTFGGGTKVEIKR | no binding | 0.69 fold over isotype | 70.3 fold over isotype |  | 
13 | antibody 569 (antibody, V domains shown) VH: QVQLVESGGGVVQPGRSLRLSCAASGFTFSSYAMHWVRQAPGKGLEWVAVISYDGSNKYYADSVKGRFTISRDNSKNTLYLQMNSLRAEDTAVYYCARASSGGYQGPFDPWGQGTLVTVSS VL: EIVLTQSPATLSLSPGERATLSCRASQSVSSYLAWYQQKPGQAPRLLIYDASNRATGIPARFSGSGSGTDFTLTISSLEPEDFAVYYCQQRSSPFGPGTKVDIK |  |  |  | 478 fold over isotype | 
14 | anti-coronavirus antibody 571 (antibody, V domains shown) VH: EVQLVESGGGLVQPGGSLRLSCAASGFTFSTYWMTWVRQAPGKGLEWVANIKHDGSGKYHVDSVKGRFTISRDNAKNSLYLQMNSLRAEDTAVYYCTRDEGGWYDYWGQGTLVTVSS VL: QSALTQPASVSGSPGQSITISCTGTSSDVGSYNPVSWYQQHPGKAPKVMIYEGSKRPSGVSNRFSGSKSGNTASLTISGLQAEDEADYYCCSYARSSTFVVFGGGTKLTVL |  |  |  |  | binding signal (fold over isotype control) (SARS-CoV Spike protein): 1.28 fold over isotype control
15 | antibody 571 (antibody, V domains shown) VH: EVQLVESGGGLVQPGGSLRLSCAASGFTFSTYWMTWVRQAPGKGLEWVANIKHDGSGKYHVDSVKGRFTISRDNAKNSLYLQMNSLRAEDTAVYYCTRDEGGWYDYWGQGTLVTVSS VL: QSALTQPASVSGSPGQSITISCTGTSSDVGSYNPVSWYQQHPGKAPKVMIYEGSKRPSGVSNRFSGSKSGNTASLTISGLQAEDEADYYCCSYARSSTFVVFGGGTKLTVL |  |  |  | 338 fold over isotype | 
16 | antibody 563 (antibody, V domains shown) VH: QVQLVESGGGVVQPGRSLRLSCAASGFTFSSYAMHWVRQAPGKGLEWVAVISDDGSNKYYADSVKGRFTISRDNSKNTLYLQMNSLRAEDTAVYYCARDIVATIRRLFDYWGQGTLVTVSS VL: not shown |  |  |  | 513 fold over isotype | 
17 | antibody 576 (antibody, V domains shown) VH: QVQLVESGGGVVQPGRSLRLSCAASGFTFSSYAMHWVRQAPGKGLEWVAVISYDGSNKYYADSVKGRFTISRDNSKNTLYLQMNSLRAEDTAVYYCAKAGGGSYYRGFDYWGQGTLVTVSS VL: DIQLTQSPSFLSASVGDRVTITCRASQGISSYLAWYQQKPGKAPKLLIYAASTLQSGVPSRFSGSGSGTEFTLTISSLQPEDFATYYCQQLNSYPTFGPGTKVDIK |  |  |  | 566 fold over isotype | 
18 | antibody 566 (antibody, V domains shown) VH: QVQLVQSGAEVKKPGASVKVSCKASGYTFTSYAMHWVRQAPGQRLEWMGWINAGNGNTKYSQKFQGRVTITRDTSASTAYMELSSLRSEDTAVYYCARDLGVAVTLHPADFDYWGQGTLVTVSS VL: QSVLTQPPSVSGAPGQRVTISCTGSSSNIGAGYDVHWYQQLPGTAPKLLIYDNSNRPSGVPDRFSGSKSGTSASLAITGLQAEDEADYYCQSYDSSLSAVVFGGGTKLTVL |  |  |  | 613 fold over isotype | 
19 | antibody 422 (antibody, V domains shown) VH: QVQLVQSGSELKKPGASVKVSCKASGYTFTSYAMNWVRQAPGQGLEWMGWINTNTGNPTYAQGFTGRFVFSLDTSVSTTYLQISSLKAEDTAVYYCARVIGVVTYYYYGMDVWGQGTTVTVSS VL: not shown |  |  |  |  | median fluorescence, fold over isotype [5]: 1250 fold over isotype control
20 | anti-SARS-CoV-2 antibody 894 (antibody, V domains shown) VH: QVQLVQSGAEVKKPGASVKVSCKVSGYTLPELSIHWVRQAPGKGLEWMGGFDPENAETIYTQKFQGRLTMTEDTSTDTAYMELSSLRSEDTAMYYCATSFVLMPAALGDYSYYYGMDVWGQGTTVTVSS VL: not shown | no binding | 0.67 fold over isotype | 77.7 fold over isotype |  | 
